{"source": "paper PMC10945814", "target": "Abx(+)D, TcmI-like aromatase/cyclase of the (+)-anthrabenzoxocinone pathway (Actinomycetes sp. MA7150)", "assay": "crystal structure", "data": [{"substance": "Abx(+)D, TcmI-like aromatase/cyclase of the (+)-anthrabenzoxocinone pathway (enzyme)", "values": [{"measurement": "stoichiometry N", "result": 2}]}]}
